The values below are quoted from earlier work in paper PMC7365847.

One may read the Kd as the equilibrium constant for the complex coming apart.

Where two headings read alike, the source gives them in different places.

Data set [1] deals with IL-1β (Homo sapiens) (UniProt P01584).
In another data set the target is IL-1Ra (Homo sapiens) (UniProt P18510).
Data set [2] addresses IL-1β (Homo sapiens) (UniProt P01584). This is another data set of the same source.
The target in another data set is IL-18BP (Homo sapiens) (UniProt O95998).
Chain of IL-18BP (Homo sapiens) (O95998 31-194): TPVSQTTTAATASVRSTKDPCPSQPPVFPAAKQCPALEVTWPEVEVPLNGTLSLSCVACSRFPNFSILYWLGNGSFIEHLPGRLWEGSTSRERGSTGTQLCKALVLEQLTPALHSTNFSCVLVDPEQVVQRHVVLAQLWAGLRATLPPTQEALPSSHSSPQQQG

Chain of IL-1β (Homo sapiens) (P01584 117-269): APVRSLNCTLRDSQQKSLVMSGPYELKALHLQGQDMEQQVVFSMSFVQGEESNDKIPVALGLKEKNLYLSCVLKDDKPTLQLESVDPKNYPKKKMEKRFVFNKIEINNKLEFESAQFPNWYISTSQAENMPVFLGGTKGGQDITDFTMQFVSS
Chain of sIL-1R2/sIL-1R3 complex (P27930 14-398): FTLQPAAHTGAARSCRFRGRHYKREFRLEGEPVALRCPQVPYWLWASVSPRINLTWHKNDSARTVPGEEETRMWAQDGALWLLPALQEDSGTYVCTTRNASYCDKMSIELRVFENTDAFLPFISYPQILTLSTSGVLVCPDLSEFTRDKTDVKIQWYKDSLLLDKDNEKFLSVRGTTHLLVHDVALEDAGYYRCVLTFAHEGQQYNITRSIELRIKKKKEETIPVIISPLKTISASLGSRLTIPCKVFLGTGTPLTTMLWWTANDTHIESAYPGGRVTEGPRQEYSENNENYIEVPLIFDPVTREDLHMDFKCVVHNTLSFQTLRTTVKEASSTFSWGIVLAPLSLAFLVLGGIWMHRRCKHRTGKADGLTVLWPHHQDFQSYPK
Chain of sIL-1R2/sIL-1R3 complex (Q9NPH3 21-570, further chain): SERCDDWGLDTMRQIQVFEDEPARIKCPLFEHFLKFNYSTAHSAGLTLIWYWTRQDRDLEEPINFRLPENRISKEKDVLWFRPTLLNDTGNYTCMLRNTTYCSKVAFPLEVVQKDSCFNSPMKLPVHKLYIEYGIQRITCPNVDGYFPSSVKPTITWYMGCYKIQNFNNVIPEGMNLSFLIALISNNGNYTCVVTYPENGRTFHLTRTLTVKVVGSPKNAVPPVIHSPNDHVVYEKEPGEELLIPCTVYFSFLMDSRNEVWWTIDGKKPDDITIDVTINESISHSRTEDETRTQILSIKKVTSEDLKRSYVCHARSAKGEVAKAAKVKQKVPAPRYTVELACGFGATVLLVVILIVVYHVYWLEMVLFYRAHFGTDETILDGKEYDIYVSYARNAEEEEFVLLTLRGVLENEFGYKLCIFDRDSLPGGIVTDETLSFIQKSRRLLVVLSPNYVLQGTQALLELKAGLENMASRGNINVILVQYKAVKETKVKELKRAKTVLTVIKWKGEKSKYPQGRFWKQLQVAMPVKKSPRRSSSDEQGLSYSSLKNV
Chain of IL-18 (Q14116 37-193): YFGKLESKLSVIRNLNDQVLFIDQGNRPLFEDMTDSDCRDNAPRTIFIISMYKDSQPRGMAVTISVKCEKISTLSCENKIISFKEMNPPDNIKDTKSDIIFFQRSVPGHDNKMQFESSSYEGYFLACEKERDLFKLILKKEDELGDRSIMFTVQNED
Chain of IL-1Ra (Homo sapiens) (P18510 26-177): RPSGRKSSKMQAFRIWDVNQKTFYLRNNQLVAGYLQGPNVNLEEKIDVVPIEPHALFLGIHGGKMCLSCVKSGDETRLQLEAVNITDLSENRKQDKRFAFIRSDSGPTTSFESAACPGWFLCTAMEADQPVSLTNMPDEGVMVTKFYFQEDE

For sIL-1R2 (from UniProt P27930), the Kd was 2.7 nM with IL-1β (Homo sapiens) [1] and 25000 nM in the data set with IL-1Ra (Homo sapiens). In the case of “sIL-1R2/sIL-1R3 complex (from UniProt P27930)”, in the data set with IL-1β (Homo sapiens) [2], the Kd was 0.0056 nM. Regarding IL-18 (from UniProt Q14116), the equilibrium dissociation constant (Kd) in the data set with IL-18BP (Homo sapiens) is 0.4 nM.
